Results as given in patent US10138280B2, “Polypeptides targeting glycosylated MUC2 proteins, methods of synthesis, their nucleic acids and uses thereof” (INSTITUT PASTEUR, priority 2011, dated 2018).

What was measured:
[1] = molecular target: T1, human colonic mucus (Muc2) (Homo sapiens, UniProt Q02817); assay: Immunofluorescent staining of human mucus and fixed human colon samples; conditions: human colon mucus from ex vivo samples and fixed purified human mucus
T1 construct: Segments of human colon (ascending, descending and sigmoid colon) were obtained from fully informed patients undergoing surgery; from tissue; host or cells: healthy human colon segments (live explants, mucus collected from them, Carnoy- or formol-fixed sections)
Excerpt: FIGS. 4A-4B. Cy5-MUB70 is specifically binding to the glycosylated moiety of Muc2 secreted in the colon mucus layer. (FIG. 4A) Immunodetection of Muc2, Muc5ac, Muc5b and Muc6 (dotblot analysis) on human mucus extracts eluted after a pulldown assay performed with biot-MUB70 on avidin conjugated beads (see Methods). Biotin is used as a negative control. Immunodetection of Muc2 (dotblot analysis) on deglycosylated mucus extracts eluted after a pulldown assay performed with biot-MUB70 on avidin conjugated beads. Non-deglycosylated mucus extract is used as a positive control. (FIG. 4B) Co-localization of Muc2 (green) and Cy5-MUB (blue) observed on fixed (Carnoy) human colon samples. Actin is stained in red (Phall.RRX). Observations are performed using a confocal microscope. Bars is 20 μm.
FIGS. 9A-9B. (FIG. 9A) Co-localization of Muc2 (green) and Cy5-MUB (blue) performed by immunofluorescent detection on human mucus extract collected on ex vivo tissues using an epifluorescent microscope. Bar is 50 μm. […]
For immunofluorescence assay mouse α-MUC2 pAbs (Santa Cruz sc-15334) was diluted 1:1000 and FITC-conjugated rabbit anti-mouse was diluted 1:2000. Host cells were detected with DAPI (nuclei, […]) or using Phalloidin-Rhodamine red X (RRX)-conjugated donkey anti-mouse antibodies (Jackson Immunoresearch Antibodies) as an actin marker (stained red); both were used at a final dilution of 1:1000. […]

[2] = test system: mucus layer of differentiated HT-29 MTX human epithelial colonic cells; assay: Staining of living HT-29 MTX cells, epifluorescent microscope; format: cell-based; conditions: living differentiated HT-29 MTX; 1 μg/mL, 2 h, serum-free media
Description: FIGS. 3A-3B. Cy5-MUB70 colonic mucus binding property. (FIG. 3A) HT-29 MTX living cells were incubated for 2 h with Cy5-MUB70 in a serum-free media. The resulting fluorescent signal (red) was visualized at the surface of the cell layer using an epifluorescent microscope. Z-projection, performed using ImageJ software, allowed 3D localization of Cy5-MUB70 fluorescence signal in the mucus layer. Bar is 10 μm (FIG. 3B) MPE and SHG imaging of the binding of Cy5-MUB70 to the human colonic mucus. […] Human tissue autofluorescence is detected in the same red channel as Cy5.
For dot blot assay, goat α-MUC2 pAbs (sc-13312, Santa Cruz), mouse α-MUC5ac (Abcam), mouse α-MUC5b mAbs (Abcam), mouse α-MUC6 mAbs (sc-33668, Santa Cruz), mouse α-lactoferrin mAbs (sc-52048, Santa Cruz) and rabbit α-FCGBP pAbs (Sigma-Aldrich) antibodies were used at a 1:100 dilution. Corresponding HRP-Conjugated antibodies were used at a 1:1000 dilution. For staining living HT-29 MTX cells and on human colon ex vivo model, Cy5-MUB70 was incubated (1 μg/mL) in a serum starved culture medium (DMEM and RPMI respectively) for two hours at 37° C. prior observation.
Fluorescent labeled tissues and cells were observed using a widefield epifluorescent microscope (Zeiss Definite Focus), laser-scanning confocal microscope (Leica TCS SP5) or a two-photons confocal microscope (Zeiss LSM710), as indicated. […]

B1: Cy5-MUB70: Cy5-labelled MUB70 polypeptide, labelled via Cy5 maleimide on N-terminal cysteine (conjugate)
peptide: CVHVQYIDGETDQMLRQDDLDGYTDETIPYSTAEGIKKFEGDGYELFKDNFPAGEKFDNDDTNDQFYTVIF
Q: B1 was tested. Which “colocalization with Muc2” value [1] did it give?
A: colocalization detection of Muc2 and Cy5-MUB70

Q: What about the “mucus layer binding on living cells” value [2] of the same molecule?
A: binding the mucus layer at the surface of the cells
